Source: the DeepSol protein solubility set

Test: soluble on expression in E. coli; label from the status in PepcDB or PDB records

Sequence | soluble on expression in E. coli
MSVIIRLKNLPMTAGASDVRTFFTGLKIPDGAVHIIGGDEGEVFVGFSSDDDARLAMTKDRLMIHGAEVRLFLSSKSEQNSVIAARKNNTYTSPVYKEYVPPVPSQPTPAQEQNWNSQTAGNPYAAKAGYEASYPPQNSNATRTSFNNQNSYSNRQEISQNHQENSVKLKDPFGGDYGGYKFQQQPPPQINRYGSGPPPSKPADLSNTRSLPPVNNPPPPHPIPQFPPEKQFGNKLGNNNDVSSRENHIQGSGNERVQGGDSWRDTSFNQPPRNDFKGNYNNAYSSNKYKNNYKAPEFNNDFNGGNKFNQFPPRNAQSTDLSENRAAPPQTGRKTLMPTPQAPFQNAPAPFTNGPSDDVNRPFQTGPPGNLGRNGPPPFQAGVPPPVIQNNMGRPIAPPAAMVRPPPQNFPGGAGGALPVFQAPVMTPIVPPVNKPMGAAAVEKFYIELTRLPTDLLRPAALEAFIHPTAPLTLSSVKTVFGPGGIHMHTIIRLDSIADYATMMRRNGEQGIKIQQSDKKSFDTAIDGIPIPSVSMVPSKEQRSHEDDDKKSRRSRWENTSPIRSPRRSPLRRDNRDRSRSRSPPRRRRRSRSPRRREEHTDPTRWCVQVTNVPFRMKDEELLEWFSEKVRPAKLTRTFYSDGNASDRWVAEFSSESLMKRSFGIRTLCTGRTLRLRYIDNAKADEILKIEDVYGEGKRQMNEEARLQHEVAEKANPPSFFNAPAATRGSGPMPPLNGTAPLPSGQQNGMNVPPPNGFNGAPMRGGFVPRGGNNFSQSRGGMMGRGGHGGGGGPQNFYQNGPNNFNNGPPEQQGQFRGNQGNDGGFRGGFRGGYRGRGGGRGGFQGGSRGDDSQPSQSELMELIKSIGPRGTVLSCNGFPKDVTLEDVVEFFNDYEPDRNSIRIRRGDDGVMTGECMLACQNQENARRASMDLDGQKLRNSVISVRII | not soluble
MSLLYTTPRLNISAFLFMKQQLSFLFLLSGLLAGCSSTPNPNLEQINQFTGGKTIGDATSFYWYTESFQKPSSASDYVTSGDYGSYQTSYRWEEGQVREIRREGEHLDGKKLVPFRVHIRFSKEGEAVYQQYRLGGKVLPMNEEQLAHYVLQAKAVAEATKEQDKQGLELIQGYWNGKTFETCQGVEYQRVEFNQSLPSFVFNRLASIESYVAFLGKIRNGKVHIDELLLLDDAGHDCVKEPELLDEGHHHHHH | soluble
MKVVAAYLLAKLSGNENPSVADLKKIVESVGAEIDQEKIDLFFSLIKDRDVTELIAVGREKMAALSSGGGAVAVASGGGGGAAPAAEPASVESKKKEEEKEESEDDGGMMSLFD | soluble
MILQELPDLEELFLCLNDYETVSCPSICCHSLKLLHITDNNLQDWTEIRKLGVMFPSLDTLVLANNHLNAIEEPDDSLARLFPNLRSISLHKSGLQSWEDIDKLNSFPKLEEVRLLGIPLLQPYTTEERRKLVIARLPSVSKLNGSVVTDGEREDSERFFIRYYVDVPQEEVPFRYHELITKYGKLEPLAEVDLRPQSSAKVEVHFNDQVEEMSIRLDQTVAELKKQLKTLVQLPTSNMLLYYFDHEAPFGPEEMKYSSRALHSFGIRDGDKIYVESKTK | soluble
MEITNVNEYEAIAKQKLPKMVYDFYASGAEDQWTLAENRNAFSRILFRPRILIDVTNIDMTTTILGFKISMPIMIAPTAMQKMAHPEGEYATARAASAAGTIMTLSSWATSSVEEVASTGPGIRFFQLYVYKDRNVVAQLVRRAERAGFKAIALTVDTPRLGRREADIKNRFVLPPFLTLKNFEGIDLGKMDKANDSGLSSYVAGQIDRSLSWKDVAWLQTITSLPILVKGVITAEDARLAVQHGAAGIIVSNHGARQLDYVPATIMALEEVVKAAQGRIPVFLDGGVRRGTDVFKALALGAAGVFIGRPVVFSLAAEGEAGVKKVLQMMRDEFELTMALSGCRSLKEISRSHIAADWDGPSSRAVARL | soluble
MKRDARDAPKSITLGFEADCVTLPIDAILPLRALGKSAKSSRKYRQIAASIAQIGIVEPPVVVRNPDRSATWLLLDGHMRIEALKDAGGSEVECLVSTDDEAFTYNRQISRLAPIQEHKMIRKAIERGVPEEKIALALDLNMSSIRRKARLLDGICEEAVAILKDKPCTNAVFDALRKMRTMRQIEAAELLVNANNYSVAYVNAILAGTPQAQLVESSKPKKVKGITPDAMARMEQELARLQEGIASIQDTYGEDHLHLTVIKGYVGKLLGNARVVRYLAQNHPEFLGEFQTITEITPAEADAAE | not soluble
MSLKTLIKNVHILTMDEQFSEIKAGYLVIEEDTIVELAPMTTLDEKRMAANQVIDGQNGILMPGMINTHTHVGMIPFRSLGDDVPDRLRRFLFPLEQFMTKELVGCSSDYAIAEMLLSGITSFCDMYYFEDEIAKSCEKMSVRALLGETIIDMPTCDSPEPSGGLFYAETFIRKWQGHPLITPMLAPHAPNTNSPEVLAKIIELSRQYQVPVTMHVAEMTYEMAEFEKAYQKTPIAFLEELGYLSEPFILAHCILATDEDLASLAATNGKARVAHCIGANTKSAKGVAPIKQMLDQGIIVGLGTDGPSSGNTLDLFTQMRMVANFHKTAHQDRSLFPAKEIVYLATMGGAKTLGLAEQVGSLEVDKKADITLIETQSVNMFPIFDAYSALVYSANASNVEAVWVNGQQLVANKELQQANLKEIKEKLYQAMNTFVKEAKKRAALEGHHHHHH | soluble
MTLVASSENTGLCPMTFDDSSGQTSHMLFQRLQYQRKTGRFCDVEIVVQNKSFAAHRNILAAHSPYFDAIFKYCKITKEQLTINSKSPQVFELFLNYMYSGTVIIDRSSVSELLRFANNFLIVKLKVYCAAYLDRYLDAANCLSIRTLAQRYNLPGLVKSATDYFDSNLNRCLLESRDIIGYTYTQLTRLIGDPKYVDCITSDTYLKLIVRWVGEEVSKREEIFRLLLESCEFREVSADTLEFLLDYSPLLSKSQKSRFLLLHVMETNNMLMEKYSTQLSSLRQKIVDLPILHDPSQFEDDIYDSSDSEEDPDDYIADGHPTSAQVVEYGNDVNNRLKMKIAFQPGNEKKRLKRPKGMKKHHLHPIPPINATENESIPWIDEDEIDGVYATCSLEGCHTYGPVDNLDPDDCEDEEDQPDENGPSTCIFCGLRTANEELLEKHKARHHNRNTYYMCHLCEFETNWSKQFYLHCAEHWTEIPYRCETCPFTSNEIQEFLTHRLQHTDERFFKCGECAWKGRTRSQLFAHERMHSVLDDRSLHCEECGRGFQQHSTLDHHVASHNDPRPYICEDCGFATKTADHLSLHRRQHTGDNFSCHIAGCDYSSTKKSQLAAHLRTHMAVRAHLCKICGRGFIEKSHLVRHERIHLEEKPFKCDQCEYASSRRDKLKEHIIKHHNSEVLTFQKTQRRKYKRQRMLAAASNIVNNPDALFRPITSDDAVSNWQATNDFSTYSPNPNDYGGPSTYGNPSSPQRAFSVVHPSQHQHHAQSPGCMSMMNVPLRDNHHQMQRQDSPGDSVGGGQGGGGGGGPEGSDNTHGVLMTPNLVMRSPHNRSAVQPQFNNLSTNSDPQQQQQQQQLRPFSLPTYGQMDLAQAAQLQQLQQQLQAAGLPPTGTPNNQDNSNNAWNPWNVQ | not soluble
MNIGNITISVIIPVYNASVTLPHCLESLHKQTYRNLELLFVDDCSTDESLYILTSYAEQFAEIDFTIRILQHERNRGVAAARNTALKCATGDYIYYVDADDSIEPHTLECLVNEINHKGLDIVGHEWYLTFNSNARYMKQPAYTTSVEALRKMMGGVMRWNLWLFLVRRSLYVENDIRFTEGLNMGEDMMVMMKLFICAGKVGIVHRPFYHYRQSNPESLTKIYSQEHIIQVANNVYEVEKYVNASAYADSLIEFIPFLKLNIKLPLLITDDKSHYEQWLECFPEANCYVMNNKLLPLRTRIIQWMAVKRYFILLRLYYRTVFKLVYGIIYKLEHHHHHH | not soluble
MGSDKIHHHHHHMNLQQLAVFREVMETGSVSAAARNLGRTQPAVSASLKALEVNLGIALFEREGRRLVPVPEAHYLLSEAAEILARVNTTEMNLVGMRNRTRGSLSVVGMPGPSVYLLPDFVSRFGSKADDLKISLSTRSSPQILNLIAAQAFDVGFCDLGFCDMSAEDLNSSLYHTKTIMSDCLCALPAQHPLAGRAVIDARQLSGERMGVLAGTHSTNRDTRAAFEQAGAVFNPRVEAQYFIPLLRFVEAGQICTVLDPLSAETYKRMNGGEVGIWFARFLPSVRFGYSIVTPKQRPLSLLAQDFVDGWSDHVREIIADHS | not soluble
MGSDKIHHHHHHMNQIDRLLTIMQRLRDPENGCPWDKEQTFATIAPYTLEETYEVLDAIAREDFDDLRGELGDLLFQVVFYAQMAQEEGRFDFNDICAAISDKLERRHPHVFADSSAENSSEVLARWEQIKTEERAQKAQHSALDDIPRSLPALMRAQKIQKRCANVGFDWTTLGPVVDKVYEEIDEVMYEARQAVVDQAKLEEEMGDLLFATVNLARHLGTKAEIALQKANEKFERRFREVERIVAARGLEMTGVDLETMEEVWQQVKRQEIDL | not soluble
